For test [1], the target named is T1, human KIR3DL2 (CD158k), wild type, at the cell surface (human, UniProt P43630 22-455).
T1 construct: also called WTaKIR3DL2; un-mutated wild type KIR3DL2
Nature of the test: panel Free KIR3DL2 - 2B12-PE: flow cytometry on HUT78 cells after 48 h at 37°C with unlabelled 2B12; loss of free KIR3DL2 detected with 2B12-PE at 10 µg/ml, the concentration axis is in µg/ml. The method, then:
(§1) This study aimed to evaluate the dynamics of KIR3DL2 receptor expression by observing the amount of total, free and 2B12-bound KIR3DL2 after different periods of incubation with antibody 2B12. Briefly, HUT78 cells (50,000 cells/well) were incubated for 1h, 24h or 48h at 37° C. in complete medium with 2B12 (human IgG1), dose range starting from 10 μg/ml (decreasing), 1/3 serial dilution, 11 concentrations, or with isotype control (IC), dose range starting (decreasing) from 10 μg/ml, 1/3 serial dilution, 11 concentrations. Dose ranges were made in triplicate in order to perform 3 staining conditions: [0323] Bound KIR3DL2 (30 min at 4° C.): GaH IgG Fc-PE, [0324] Free KIR3DL2+total KIR3DL2 (1h at 4° C.): 2B12-PE (10 μg/ml)+mAb2-APC (non-competing anti-KIR3DL2) (10 μg/ml), [0325] Total KIR3DL2 (1h+30 min at 4° C.): 2B12 (10 μg/ml)+GaH IgG Fc-PE.
In general terms: In flow cytometry, cells or beads pass a laser one at a time.

The target in test [2] is T1, human KIR3DL2 (CD158k), wild type, at …. Kind of test: flow cytometry on HUT78 cells after 20 h at 37°C with unlabelled antibody; loss of free KIR3DL2 detected with PE-labelled 2B12 (IPH4102-PE on the sheet) at 10 µg/ml; the box prints no unit, the concentration axis is in µg/ml. As for the experimental part:
(§2) This study aimed to evaluate the impact of a 20 hour incubation with antibody 2B12 on cell surface KIR3DL2 level by observing the amount of bound 2B12 (human IgG1), free (non-antibody bound) cell surface KIR3DL2 polypeptide, and total cell surface KIR3DL2 polypeptide. Briefly, HUT78 (100,000 cells/well) were incubated for 20h at 37° C. with a dose range of 2B12 antibody starting from (decreasing) 8.88 μg/ml, 1/3 serial dilution, 11 concentrations. Dose ranges were made in duplicate in order to perform the following 2 staining conditions: [0317] Total KIR3DL2+bound KIR3DL2 (GaH IgG Fc-PE+mAb2-APC (a non-competing anti-KIR3LD2 mAb) (10 μg/ml) [0318] Free KIR3DL2: 2B12-PE (10 μg/ml).
(§3) Staining was performed at 4° C. in staining buffer for 1h and analyzed with a FACS Canto 11 HTS. The dark line/squares represents antibody 2B12 while the light line/circles represents isotype control. It can be seen that free KIR3DL2 receptors can be detected when incubating cells with 10 μg/ml of 2B12-PE and detecting free receptors with non-competing anti-KIR3DL2 antibody. It can be seen that 2B12-bound KIR3DL2 receptors can be detected by incubating cells with goat anti-human IgG Fc-PE secondary Ab. Both read-outs were correlated, with similar EC₅₀. […]

Test [3] shares this target. Nature of the test: flow cytometry on HUT78 cells after 20 h at 37°C; bound antibody detected with goat anti-human IgG Fc-PE (MdFI GaH-PE); the box prints no unit, the concentration axis is in µg/ml. The method, then:
as §2, §3

The target is the same in test [4]. Kind of test: panel Free KIR3DL2 - 2B12-PE: flow cytometry on HUT78 cells after 1 h at 37°C with unlabelled 2B12; loss of free KIR3DL2 detected with 2B12-PE at 10 µg/ml, the concentration axis is in µg/ml. As for the experimental part: as §1
For test [5] the target is unchanged. Kind of test: panel Bound KIR3DL2 - GaH-PE: flow cytometry on HUT78 cells after 24 h at 37°C with 2B12; bound antibody detected with goat anti-human IgG Fc-PE, the concentration axis is in µg/ml. The method, then:
as §1

For test [6] the target is unchanged. Kind of test: cell-based or functional assay.
Test [7] has the same target. Nature of the test: panel Bound KIR3DL2 - GaH-PE: flow cytometry on HUT78 cells after 48 h at 37°C with 2B12; bound antibody detected with goat anti-human IgG Fc-PE, the concentration axis is in µg/ml. As for the experimental part:
as §1

The target is the same in test [8]. Nature of the test: flow cytometry on live HUT78 cells, 24 h at 37°C in RPMI10%, detection with anti-human-Fc PE, median of fluorescence. As for the experimental part:
(§4) This study aimed to evaluate the impact of staining conditions on 2B12 labelling of KIR3DL2-expressing cells, gated on total cells, at 4° C. or 37° C., and with incubation times of 2 hours, 4 hours or 24 hours. Briefly, 100,000 HUT78 cells per well were incubated with a dose range of 2B12 antibody starting from 0.0005 μg/ml to 30 μg/ml (serial dilution 1/3 in complete medium). The protocol used was as follows: incubation 2H; 4H and overnight at 4° C. and 37°; staining in RPMI 10% with or without PFA fixation; 2 washes in SB (150 μl/w); addition of anti-human-Fc PE for 30 min at 4° C.; 2 washes in SB (100 μl/w); and detection using FACS CANTO II.

Test [9] shares this target. Nature of the test: flow cytometry on live HUT78 cells, 4 h at 37°C in RPMI10%, detection with anti-human-Fc PE, median of fluorescence. As for the experimental part: as §4
Test [10] has the same target. Kind of test: cell-based or functional assay. This is another data set of the same source.
The target is the same in test [11]. Kind of test: flow cytometry on live HUT78 cells, 24 h at 4°C in RPMI10%, detection with anti-human-Fc PE, median of fluorescence. As for the experimental part: as §4
Test [12] shares this target. Kind of test: panel Free KIR3DL2 - 2B12-PE: flow cytometry on HUT78 cells after 24 h at 37°C with unlabelled 2B12; loss of free KIR3DL2 detected with 2B12-PE at 10 µg/ml, the concentration axis is in µg/ml. The method, then:
as §1

Test [13] has the same target. Nature of the test: flow cytometry on live HUT78 cells, 2 h at 37°C in RPMI10%, detection with anti-human-Fc PE, median of fluorescence. The method, then:
as §4

For test [14], the target named is KIR3DL2 mutant having I60N and G62S substitutions (human, UniProt P43630 22-455). Nature of the test: binding to a series of KIR3DL2 mutants.
Chain of KIR3DL2 mutant having I60N and G62S substitutions (P43630 other isoform, or with tags, fused parts or gaps I60N G62S I60N G62S): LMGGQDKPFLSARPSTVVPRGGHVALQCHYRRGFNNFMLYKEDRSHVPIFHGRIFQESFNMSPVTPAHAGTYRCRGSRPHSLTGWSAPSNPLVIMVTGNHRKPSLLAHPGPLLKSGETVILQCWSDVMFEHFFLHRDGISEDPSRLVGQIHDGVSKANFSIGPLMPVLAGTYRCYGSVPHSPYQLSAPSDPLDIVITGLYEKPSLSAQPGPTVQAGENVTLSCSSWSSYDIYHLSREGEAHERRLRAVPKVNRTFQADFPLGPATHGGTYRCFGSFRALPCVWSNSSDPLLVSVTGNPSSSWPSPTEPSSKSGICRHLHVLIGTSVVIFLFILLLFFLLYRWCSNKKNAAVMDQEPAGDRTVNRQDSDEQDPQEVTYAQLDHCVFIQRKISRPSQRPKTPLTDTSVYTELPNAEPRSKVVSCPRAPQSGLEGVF
Test [15] deals with KIR3DL2 mutant having P14S, S15A and H23S substitutions (human, UniProt P43630 22-455). Kind of test: binding to a series of KIR3DL2 mutants.
Chain of KIR3DL2 mutant having P14S, S15A and H23S substitutions (P43630 other isoform, or with tags, fused parts or gaps P14S S15A H23S P14S S15A H23S): as the sequence (P43630 other isoform, or with tags, fused parts or gaps I60N G62S I60N G62S) above, with P14S, S15A, H23S, N60I, S62G counted along it
The next test concerns the target T2, KIR3DL1 (CD158e1) (UniProt P43629 22-444, limits assumed).
T2 construct: also called closely related KIR3DL1
Kind of test: hybridoma screening (flow cytometry, incl. HEK-293T/KIR3DL1 Domain 0-eGFP). The method, then: Antibodies which bind KIR3DL2 but not closely related KIR3DL1 were generated by immunizing mice with recombinant KIR3DL2-Fc fusion protein, described in US patent publication number US-2015-0232556-A1. Supernatant (SN) of the growing hybridomas were tested by flow cytometry on Sezary Syndrome cell lines (HUT78, COU-L) and HEK-293T/KIR3DL2 Domain 0-eGFP. Potentially interesting hybridomas selected from the initial screening were cloned by limiting dilution techniques in 96-wells plates. The secondary screen involved selection of hybridomas of interest by testing supernatants of the subclones by flow cytometry on HUT78, COU-L, HEK-293T/KIR3DL1 Domain 0-eGFP and HEK-293T/KIR3DL2 Domain 0-eGFP. Positive subclones were injected into mice to produce ascitis and antibodies of interest were purified before being tested in a Biacore assay using rec KIR3DL2 chips, followed by various assays formats based on binding to human KIR3DL2-expressing cells.

T1 sequence (P43630 22-455 E158D): as the sequence (P43630 other isoform, or with tags, fused parts or gaps I60N G62S I60N G62S) above, with N60I, S62G counted along it
T2 sequence (P43629 22-444 limits assumed): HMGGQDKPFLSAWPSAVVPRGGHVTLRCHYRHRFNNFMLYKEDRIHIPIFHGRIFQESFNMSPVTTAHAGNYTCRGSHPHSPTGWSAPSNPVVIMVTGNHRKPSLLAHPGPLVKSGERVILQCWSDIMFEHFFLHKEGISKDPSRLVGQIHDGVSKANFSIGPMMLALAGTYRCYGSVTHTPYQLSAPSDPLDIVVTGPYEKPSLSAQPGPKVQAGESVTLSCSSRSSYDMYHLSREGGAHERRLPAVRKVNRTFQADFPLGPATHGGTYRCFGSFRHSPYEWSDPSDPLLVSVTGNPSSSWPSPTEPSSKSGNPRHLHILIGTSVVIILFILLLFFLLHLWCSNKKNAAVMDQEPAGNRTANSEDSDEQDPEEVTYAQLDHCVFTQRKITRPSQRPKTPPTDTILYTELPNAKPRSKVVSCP

B1: antibody 2B12 (human IgG1) (antibody, V domains shown)
VH: QIQLVQSGPELKKPGETVRISCKASGYTFTTAGMQWVQKTPGKGLKWIGWINSHSGVPKYAEDFKGRFAFSLETSASTAYLQISTLKNEDTATYFCARGGDEGVMDYWGQGTSVTVS
VL: DIVMTQSHKFMSTSLGDRVSFTCKASQDVSTAVAWYQQKPGQSPKLLIYWTSTRHTGVPDRFTGSGSGTDYTLTISSVQAEDLALYYCQQHYSTPWTFGGGTKLEIK
notes: Used as human IgG1 in the HUT78 staining studies (Parts 1-3); also called 2B12-PE
As for B1, the EC50 – broadly, the concentration that produces a half-maximal response – in test [1] is 0.0178 µg/mL; in [2], 0.0588 µg/mL; in test [3], 0.059 µg/mL; in test [4] it was 0.104 µg/mL; in test [5] it was 0.0566 µg/mL; in [7], 0.0163 µg/mL. The molecule also gave an EC50 in test [12] of 0.0438 µg/mL. Also, the “EC50 of the increase of total cell-surface KIR3DL2 on HUT78 cells after 20 h at 37°C, detected with mAb2-APC (axis: MdFI 13E4-APC)” value in [6] was 0.0789 µg/mL. Further, the EC50 (read off the curve) (commonly the concentration that produces a half-maximal response) was about 0.07 µg/mL in test [8], about 0.09 µg/mL in test [9], about 0.04 µg/mL in [11] and about 0.1 µg/mL in test [13]. For the same molecule, in [10], the “EC50 of the increase of total cell-surface KIR3DL2 on HUT78 cells after 24 h at 37°C, panel Total KIR3DL2 - 2B12+GaH-PE” value stood at 0.103 µg/mL. The “EC50 of the increase of total cell-surface KIR3DL2 on HUT78 cells after 24 h at 37°C, panel Total KIR3DL2 - mAb2-APC” value in test [10] amounted to 0.0599 µg/mL. Further, the “EC50 of the increase of total cell-surface KIR3DL2 on HUT78 cells after 48 h at 37°C, panel Total KIR3DL2 - 2B12+GaH-PE” value in test [10] turned out to be 0.0454 µg/mL. In addition, the “EC50 of the increase of total cell-surface KIR3DL2 on HUT78 cells after 48 h at 37°C, panel Total KIR3DL2 - mAb2-APC” value in test [10] turned out to be 0.042 µg/mL.

B2: antibody 2B12 (parental, as generated in Example 1) (antibody, V domains shown)
VH: B1 VH
VL: B1 VL
notes: From mouse hybridoma; It was detected with goat anti-mouse antibody in the internalization assay
Turning to B2, the binding result is recorded as “no binding” in [14], “binds” in test [15] and “no binding” in the test with KIR3DL1 (CD158e1).

The record behind these values is patent publication US20210087270A1 (INNATE PHARMA, published 2021).
